Results: article doi:10.1101/2020.06.18.159665 (bioRxiv, 2020)
“And” between values parts separate entries of the source, which are not always exact repeats. Equal values may be shown once.

Tests used:
[1] = target: N- and C-terminal double His-tagged GSK3β (His-GSK3β-His) (human, UniProt P49841 1-420); assay: SPR
[2] = target: 6X-HisGSK3β purchased from Signalchem (G09-10H-05) (human, UniProt P49841 1-420); assay: MST
[3] = target: biotinylated 6X-His-GSK3β (human, UniProt P49841 1-420, biotin (site not stated)); assay: BLI
Sequence of biotinylated 6X-His-GSK3β (P49841 whole entry): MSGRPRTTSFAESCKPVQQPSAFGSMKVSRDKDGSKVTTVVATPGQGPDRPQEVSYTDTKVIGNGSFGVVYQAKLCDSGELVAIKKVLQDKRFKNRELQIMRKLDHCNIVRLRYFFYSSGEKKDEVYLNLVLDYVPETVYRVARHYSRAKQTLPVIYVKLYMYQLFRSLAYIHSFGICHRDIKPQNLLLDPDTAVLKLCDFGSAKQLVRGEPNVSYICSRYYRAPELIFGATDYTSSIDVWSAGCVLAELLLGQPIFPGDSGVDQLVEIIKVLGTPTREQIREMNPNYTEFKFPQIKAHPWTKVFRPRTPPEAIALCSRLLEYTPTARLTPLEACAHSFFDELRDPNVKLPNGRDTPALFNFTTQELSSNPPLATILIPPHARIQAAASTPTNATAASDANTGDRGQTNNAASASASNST

Sequence of N- and C-terminal double His-tagged GSK3β (His-GSK3β-His) (P49841 whole entry): as above
Sequence of 6X-HisGSK3β purchased from Signalchem (G09-10H-05) (P49841 whole entry): as above

| koff [1] | kon [1] | Kd [2] | Kd [3] | Kd [1] | Binder |
| --- | --- | --- | --- | --- | --- |
| 0.000249 s⁻¹ | 495 ± 31.4 M⁻¹ s⁻¹ | 5.7 µM | – | – | PEVPPTPPGSHSAFTSSFSFIRLSLGSAGERGEAEGCPPSREAE (peptide, UniProt Q9NRI5 193-236, looked up) [hDISCtide, 44-mer peptide derived from human DISC1 (residues 193-236)] |
| – | – | – | 63.6 µM | – | VEPQKFAEELIHRLEAVQ [AxinGID] |
| – | – | – | 3.6 µM and 3.8 µM | 1.9 µM and 3.2 µM | DPHRLLQQLVLSGNLIKEAVRRLHS [FRATide] |
